{"source": "patent US20250320281A1", "key": {"[1]": {"target": "HIV-1 92RW020 Env (pseudovirus) (HIV-1)", "experiment": "cell-based or functional assay"}, "[2]": {"target": "HIV-1 92TH021 Env (pseudovirus) (HIV-1)", "experiment": "cell-based or functional assay"}, "[3]": {"target": "HIV-1 92UG005 Env (pseudovirus) (HIV-1)", "experiment": "cell-based or functional assay"}, "[4]": {"target": "HIV-1 92UG024 Env (pseudovirus) (HIV-1)", "experiment": "cell-based or functional assay"}, "[5]": {"target": "HIV-1 93IN905 Env (pseudovirus) (HIV-1)", "experiment": "cell-based or functional assay"}, "[6]": {"target": "HIV-1 94UG103 Env (pseudovirus) (HIV-1)", "experiment": "cell-based or functional assay"}, "[7]": {"target": "HIV-1 APV6 Env (pseudovirus) (HIV-1)", "experiment": "cell-based or functional assay"}, "[8]": {"target": "HIV-1 CMU02 Env (pseudovirus) (HIV-1)", "experiment": "cell-based or functional assay"}, "[9]": {"target": "HIV-1 Env of pseudovirus isolate MGRM-G-001 (HIV-1)", "experiment": "cell-based or functional assay"}, "[10]": {"target": "HIV-1 Env of pseudovirus isolate MGRM-G-004 (HIV-1)", "experiment": "cell-based or functional assay"}, "[11]": {"target": "HIV-1 Env of pseudovirus isolate MGRM-G-006 (HIV-1)", "experiment": "cell-based or functional assay"}, "[12]": {"target": "HIV-1 Env of pseudovirus isolate MGRM-G-009 (HIV-1)", "experiment": "cell-based or functional assay"}, "[13]": {"target": "HIV-1 Env of pseudovirus isolate MGRM-G-011 (HIV-1)", "experiment": "cell-based or functional assay"}, "[14]": {"target": "HIV-1 Env of pseudovirus isolate MGRM-G-013 (HIV-1)", "experiment": "cell-based or functional assay"}, "[15]": {"target": "HIV-1 Env of pseudovirus isolate MGRM-G-014 (HIV-1)", "experiment": "cell-based or functional assay"}, "[16]": {"target": "HIV-1 Env of pseudovirus isolate MGRM-G-015 (HIV-1)", "experiment": "cell-based or functional assay"}, "[17]": {"target": "HIV-1 Env of pseudovirus isolate MGRM-G-016 (HIV-1)", "experiment": "cell-based or functional assay"}, "[18]": {"target": "HIV-1 Env of pseudovirus isolate MGRM-G-017 (HIV-1)", "experiment": "cell-based or functional assay"}, "[19]": {"target": "HIV-1 Env of pseudovirus isolate MGRM-G-019 (HIV-1)", "experiment": "cell-based or functional assay"}, "[20]": {"target": "HIV-1 Env of pseudovirus isolate MGRM-G-027 (HIV-1)", "experiment": "cell-based or functional assay"}, "[21]": {"target": "HIV-1 JRCSF Env (pseudovirus) (HIV-1) (UniProt P20871)", "experiment": "cell-based or functional assay"}, "[22]": {"target": "HIV-1 MGRM-A-010 Env (pseudovirus) (HIV-1)", "experiment": "cell-based or functional assay"}, "[23]": {"target": "HIV-1 MGRM-C-026 Env (pseudovirus) (HIV-1)", "experiment": "cell-based or functional assay"}, "[24]": {"target": "HIV-1 MGRM-C-027 Env (pseudovirus) (HIV-1)", "experiment": "cell-based or functional assay"}, "[25]": {"target": "HIV-1 MGRM-C-028 Env (pseudovirus) (HIV-1)", "experiment": "cell-based or functional assay"}, "[26]": {"target": "HIV-1 MGRM-D-018 Env (pseudovirus) (HIV-1)", "experiment": "cell-based or functional assay"}, "[27]": {"target": "HIV-1 NL43 Env (pseudovirus) (HIV-1)", "experiment": "cell-based or functional assay"}, "[28]": {"target": "envelope of aMLV pseudovirus (negative control)", "experiment": "cell-based or functional assay"}, "WT JR-FL gp120 (HIV-1)": {"target": "WT JR-FL gp120 (HIV-1)", "experiment": "ELISA, antigen-coated wells"}}, "data": [{"substance": "5329_C19 (PGT-136) (antibody)", "values": [{"measurement": "neutralization IC50 (pseudovirus)", "setting": "[1]", "value": 0.738, "unit": "µg/mL"}, {"measurement": "IC50 (neutralizing activity, pseudovirus)", "setting": "[2]", "value": "> 10", "unit": "µg/mL"}, {"measurement": "IC50 (neutralizing activity, pseudovirus)", "setting": "[3]", "value": "> 10", "unit": "µg/mL"}, {"measurement": "IC50 (neutralizing activity, pseudovirus)", "setting": "[4]", "value": 0.0915, "unit": "µg/mL"}, {"measurement": "IC50 (neutralizing activity, pseudovirus)", "setting": "[5]", "value": 0.0135, "unit": "µg/mL"}, {"measurement": "IC50 (neutralizing activity, pseudovirus)", "setting": "[6]", "value": "> 10", "unit": "µg/mL"}, {"measurement": "IC50 (neutralizing activity, pseudovirus)", "setting": "[7]", "value": "> 10", "unit": "µg/mL"}, {"measurement": "IC50 (neutralizing activity, pseudovirus)", "setting": "[8]", "value": "> 10", "unit": "µg/mL"}, {"measurement": "IC50 (µg/mL), pseudovirus neutralization", "setting": "[9]", "value": 8.11, "unit": "µg/mL"}, {"measurement": "IC50 (µg/mL), pseudovirus neutralization", "setting": "[10]", "value": "> 50", "unit": "µg/mL"}, {"measurement": "IC50 (µg/mL), pseudovirus neutralization", "setting": "[11]", "value": "> 50", "unit": "µg/mL"}, {"measurement": "IC50 (µg/mL), pseudovirus neutralization", "setting": "[12]", "value": "> 50", "unit": "µg/mL"}, {"measurement": "IC50 (µg/mL), pseudovirus neutralization", "setting": "[13]", "value": "> 50", "unit": "µg/mL"}, {"measurement": "IC50 (µg/mL), pseudovirus neutralization", "setting": "[14]", "value": "> 50", "unit": "µg/mL"}, {"measurement": "IC50 (µg/mL), pseudovirus neutralization", "setting": "[15]", "value": "> 50", "unit": "µg/mL"}, {"measurement": "IC50 (µg/mL), pseudovirus neutralization", "setting": "[16]", "value": "> 50", "unit": "µg/mL"}, {"measurement": "IC50 (µg/mL), pseudovirus neutralization", "setting": "[17]", "value": "> 50", "unit": "µg/mL"}, {"measurement": "IC50 (µg/mL), pseudovirus neutralization", "setting": "[18]", "value": "> 50", "unit": "µg/mL"}, {"measurement": "IC50 (µg/mL), pseudovirus neutralization", "setting": "[19]", "value": 44.3, "unit": "µg/mL"}, {"measurement": "IC50 (µg/mL), pseudovirus neutralization", "setting": "[20]", "value": 45.2, "unit": "µg/mL"}, {"measurement": "IC50 (neutralizing activity, pseudovirus)", "setting": "[21]", "value": "> 10", "unit": "µg/mL"}, {"measurement": "IC50 (neutralizing activity, pseudovirus)", "setting": "[22]", "value": "> 10", "unit": "µg/mL"}, {"measurement": "IC50 (neutralizing activity, pseudovirus)", "setting": "[23]", "value": 0.0065, "unit": "µg/mL"}, {"measurement": "IC50 (neutralizing activity, pseudovirus)", "setting": "[24]", "value": "> 10", "unit": "µg/mL"}, {"measurement": "IC50 (neutralizing activity, pseudovirus)", "setting": "[25]", "value": "> 10", "unit": "µg/mL"}, {"measurement": "IC50 (neutralizing activity, pseudovirus)", "setting": "[26]", "value": "> 10", "unit": "µg/mL"}, {"measurement": "IC50 (neutralizing activity, pseudovirus)", "setting": "[27]", "value": "> 10", "unit": "µg/mL"}, {"measurement": "IC50 (µg/mL), pseudovirus neutralization", "setting": "[28]", "value": "> 50", "unit": "µg/mL"}, {"measurement": "EC50", "setting": "WT JR-FL gp120 (HIV-1)", "value": 0.2, "unit": "µg/mL"}]}, {"substance": "5343_B08 (PGT-135) (antibody)", "values": [{"measurement": "neutralization IC50 (pseudovirus)", "setting": "[1]", "value": 0.157, "unit": "µg/mL"}, {"measurement": "IC50 (neutralizing activity, pseudovirus)", "setting": "[2]", "value": "> 10", "unit": "µg/mL"}, {"measurement": "IC50 (neutralizing activity, pseudovirus)", "setting": "[3]", "value": "> 10", "unit": "µg/mL"}, {"measurement": "IC50 (neutralizing activity, pseudovirus)", "setting": "[4]", "value": 0.0139, "unit": "µg/mL"}, {"measurement": "IC50 (neutralizing activity, pseudovirus)", "setting": "[5]", "value": 0.0183, "unit": "µg/mL"}, {"measurement": "IC50 (neutralizing activity, pseudovirus)", "setting": "[6]", "value": "> 10", "unit": "µg/mL"}, {"measurement": "IC50 (neutralizing activity, pseudovirus)", "setting": "[7]", "value": "> 10", "unit": "µg/mL"}, {"measurement": "IC50 (neutralizing activity, pseudovirus)", "setting": "[8]", "value": "> 10", "unit": "µg/mL"}, {"measurement": "IC50 (µg/mL), pseudovirus neutralization", "setting": "[9]", "value": 0.393, "unit": "µg/mL"}, {"measurement": "IC50 (µg/mL), pseudovirus neutralization", "setting": "[10]", "value": "> 50", "unit": "µg/mL"}, {"measurement": "IC50 (µg/mL), pseudovirus neutralization", "setting": "[11]", "value": "> 50", "unit": "µg/mL"}, {"measurement": "IC50 (µg/mL), pseudovirus neutralization", "setting": "[12]", "value": "> 50", "unit": "µg/mL"}, {"measurement": "IC50 (µg/mL), pseudovirus neutralization", "setting": "[13]", "value": "> 50", "unit": "µg/mL"}, {"measurement": "IC50 (µg/mL), pseudovirus neutralization", "setting": "[14]", "value": "> 50", "unit": "µg/mL"}, {"measurement": "IC50 (µg/mL), pseudovirus neutralization", "setting": "[15]", "value": "> 50", "unit": "µg/mL"}, {"measurement": "IC50 (µg/mL), pseudovirus neutralization", "setting": "[16]", "value": "> 50", "unit": "µg/mL"}, {"measurement": "IC50 (µg/mL), pseudovirus neutralization", "setting": "[17]", "value": "> 50", "unit": "µg/mL"}, {"measurement": "IC50 (µg/mL), pseudovirus neutralization", "setting": "[18]", "value": 0.137, "unit": "µg/mL"}, {"measurement": "IC50 (µg/mL), pseudovirus neutralization", "setting": "[19]", "value": 0.145, "unit": "µg/mL"}, {"measurement": "IC50 (µg/mL), pseudovirus neutralization", "setting": "[20]", "value": 0.062, "unit": "µg/mL"}, {"measurement": "IC50 (neutralizing activity, pseudovirus)", "setting": "[21]", "value": 0.113, "unit": "µg/mL"}, {"measurement": "IC50 (neutralizing activity, pseudovirus)", "setting": "[22]", "value": "> 10", "unit": "µg/mL"}, {"measurement": "IC50 (neutralizing activity, pseudovirus)", "setting": "[23]", "value": 0.0123, "unit": "µg/mL"}, {"measurement": "IC50 (neutralizing activity, pseudovirus)", "setting": "[24]", "value": "> 10", "unit": "µg/mL"}, {"measurement": "IC50 (neutralizing activity, pseudovirus)", "setting": "[25]", "value": 2.16, "unit": "µg/mL"}, {"measurement": "IC50 (neutralizing activity, pseudovirus)", "setting": "[26]", "value": 0.0433, "unit": "µg/mL"}, {"measurement": "IC50 (neutralizing activity, pseudovirus)", "setting": "[27]", "value": 6.79, "unit": "µg/mL"}, {"measurement": "IC50 (µg/mL), pseudovirus neutralization", "setting": "[28]", "value": "> 50", "unit": "µg/mL"}, {"measurement": "EC50", "setting": "WT JR-FL gp120 (HIV-1)", "value": 0.1, "unit": "µg/mL"}]}]}
